# ± gives the standard deviation of the averaged measurements.
# What was measured:
# [1] = system: Saccharomyces cerevisiae; experiment: protein stability index of tFT-peptide fusion (C-terminal peptide) (PSI (0-1 scale)); higher = more stable (slower turnover); conditions: genetic background: wild type; temperature: 30 C
# [2] = system: Saccharomyces cerevisiae; experiment: as above
# Description: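 MPS profiling in S. cerevisiae of the tFT-X12 degron library: putative degron peptides plus stable controls, 12 aa, fused to the C-terminus of a sfGFP-mCherry timer. Cells are FACS-sorted into 8 mCherry/sfGFP bins and deep-sequenced. PSI runs from 0 (unstable) to 1 (stable). Backgrounds are wild type, das1Δ and doa10Δ at 30 °C, and wild type, das1Δ, cdc34-1 and cdc53-1 at 37 °C; 2-3 technical replicates each.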
# [3] = genetic background: cdc34-1, temperature: 37 C
# [4] = genetic background: cdc53-1, temperature: 37 C
# [5] = genetic background: das1 deletion, temperature: 30 C
# [6] = genetic background: das1 deletion, temperature: 37 C
# [7] = genetic background: doa10 deletion, temperature: 30 C
# [8] = genetic background: wild type, temperature: 30 C
# [9] = genetic background: wild type, temperature: 37 C
# 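Further: PSI is a weighted mean of sequencing reads over stability bins, variants kept only with over 10 reads, mCherry proximal and sfGFP distal, peptide attached via GGGS linker.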
Sequence,protein stability index [1],"protein stability index [2, 3]","protein stability index [2, 4]","protein stability index [2, 5]","protein stability index [2, 6]","protein stability index [2, 7]","protein stability index [2, 8]","protein stability index [2, 9]"
LLQCRTGLASGR,0.518 ± 0.13,0.685 ± 0.032,0.732 ± 0.043,0.649 ± 0.013,0.748 ± 0.0087,0.652 ± 0.029,0.656 ± 0.043,0.718 ± 0.043
LLSGLVFVFVLG,0.318 ± 0.02,0.293 ± 0.01,0.405 ± 0.026,0.238 ± 0.04,0.445 ± 0.0072,0.204 ± 0.0027,0.236 ± 0.028,0.425 ± 0.014
LLSILSSLPLSR,0.576 ± 0.12,0.579 ± 0.04,0.6106 ± 0.0022,0.585 ± 0.043,0.7073 ± 0.0042,0.654 ± 0.033,0.589 ± 0.024,0.656 ± 0.029
LLVFSLLRPFLF,0.501 ± 0.016,0.615 ± 0.072,0.643 ± 0.018,0.567 ± 0.039,0.6602 ± 0.0048,0.414 ± 0.028,0.417 ± 0.023,0.5623 ± 0.003
LLVLRQYFFFFV,0.295 ± 0.027,0.462 ± 0.026,0.531 ± 0.013,0.468 ± 0.035,0.606 ± 0.017,0.238 ± 0.012,0.224 ± 0.022,0.401 ± 0.011
LPCPPSPASLPR,0.498 ± 0.0076,0.676 ± 0.0092,0.7154 ± 0.0027,0.447 ± 0.013,0.634 ± 0.0069,0.437 ± 0.013,0.448 ± 0.0041,0.59 ± 0.019
LPHIFFCLFSLL,0.289 ± 0.026,0.582 ± 0.045,0.611 ± 0.047,0.562 ± 0.05,0.657 ± 0.066,0.203 ± 0.01,0.215 ± 0.024,0.317 ± 0.015
LPPFRFSLPFRR,0.712 ± 0.019,0.692 ± 0.044,0.7531 ± 0.0018,0.671 ± 0.013,0.705 ± 0.023,0.64 ± 0.024,0.658 ± 0.019,0.71 ± 0.036
LPWLLLISFSYR,0.286,0.149 ± 0.017,0.25 ± 0.037,0.202 ± 0.029,0.38 ± 0.0051,0.171 ± 0.0091,0.188 ± 0.029,0.378 ± 0.061
LQSYIFSVRGIS,0.533 ± 0.078,0.707 ± 0.02,0.697 ± 0.018,0.601 ± 0.029,0.707 ± 0.029,0.418 ± 0.054,0.45 ± 0.046,0.638 ± 0.0012
LRMMLLVTIILE,0.188 ± 0.037,0.0571 ± 0.0011,0.115 ± 0.0084,0.107 ± 0.028,0.216 ± 0.0072,0.0875 ± 0.023,0.0921 ± 0.025,0.198 ± 0.026
LRVGVRSWGGKW,0.433 ± 0.0069,0.4323 ± 0.0013,0.5125 ± 0.0013,0.4299 ± 0.0014,0.4369 ± 0.002,0.439 ± 0.013,0.4346 ± 0.0031,0.439 ± 0.014
LSFYLRAVRASL,0.522 ± 0.035,0.777 ± 0.092,0.782 ± 0.009,0.629 ± 0.015,0.7101 ± 0.0032,0.562 ± 0.037,0.565 ± 0.027,0.673 ± 0.015
LSLFPFLPSPCP,0.748 ± 0.07,0.736 ± 0.03,0.777 ± 0.0099,0.671 ± 0.009,0.752 ± 0.035,0.674 ± 0.036,0.669 ± 0.021,0.744 ± 0.018
LSRSAGVGVWVG,0.391 ± 0.073,0.65 ± 0.01,0.72 ± 0.019,0.647 ± 0.0099,0.731 ± 0.013,0.243 ± 0.018,0.283 ± 0.022,0.553 ± 0.026
LSTFFIFLRILR,0.367 ± 0.028,0.289 ± 0.028,0.218 ± 0.0087,0.324 ± 0.04,0.4436 ± 0.0022,0.517 ± 0.021,0.342 ± 0.028,0.436 ± 0.05
LVFLYFHFCCGF,0.485 ± 0.017,0.4768 ± 0.0043,0.4909 ± 0.0032,0.394 ± 0.026,0.543 ± 0.024,0.399 ± 0.017,0.386 ± 0.013,0.5313 ± 0.0006
LVFPPVPSLVLC,0.352 ± 0.0088,0.261 ± 0.018,0.278 ± 0.0066,0.277 ± 0.036,0.376 ± 0.013,0.192 ± 0.0059,0.223 ± 0.029,0.3099 ± 0.0013
LVFPRWACSLVF,0.3762 ± 0.00049,0.344 ± 0.0079,0.3661 ± 0.0021,0.307 ± 0.025,0.426 ± 0.0075,0.263 ± 0.0029,0.288 ± 0.037,0.406 ± 0.019
LVFRVSLVEVVL,0.32 ± 0.014,0.2142 ± 0.0015,0.299 ± 0.0071,0.232 ± 0.028,0.36 ± 0.01,0.196 ± 0.0062,0.214 ± 0.029,0.334 ± 0.014

Sequence,protein stability index [1],"protein stability index [2, 3]","protein stability index [2, 4]","protein stability index [2, 5]","protein stability index [2, 6]","protein stability index [2, 7]","protein stability index [2, 8]","protein stability index [2, 9]"
LVGLLASWLRFN,0.137 ± 0.039,0.579 ± 0.052,0.6987 ± 0.001,0.672 ± 0.0051,0.773 ± 0.017,0.12 ± 0.0057,0.137 ± 0.012,0.199 ± 0.061
LVLALTPFLHSF,0.399 ± 0.0069,0.639 ± 0.01,0.701 ± 0.017,0.638 ± 0.021,0.727 ± 0.012,0.239 ± 0.0075,0.284 ± 0.018,0.551 ± 0.0073
LVLSVWFFNCTS,0.424 ± 0.021,0.485 ± 0.0093,0.569 ± 0.021,0.422 ± 0.032,0.573 ± 0.022,0.277 ± 0.0063,0.283 ± 0.039,0.5196 ± 0.0025
LVRFYGPLPPFP,0.7258 ± 0.0068,0.688 ± 0.047,0.7613 ± 0.0063,0.664 ± 0.029,0.757 ± 0.011,0.656 ± 0.016,0.66 ± 0.011,0.729 ± 0.011
LVRGGLTNLFLF,0.316 ± 0.032,0.664 ± 0.046,0.78 ± 0.019,0.644 ± 0.024,0.7829 ± 0.0056,0.181 ± 0.0012,0.194 ± 0.032,0.47 ± 0.016
LWFFVVVVVRWV,0.189 ± 0.053,0.102 ± 0.014,0.135 ± 0.0081,0.149 ± 0.032,0.2611 ± 0.0017,0.139 ± 0.019,0.136 ± 0.027,0.183 ± 0.03
LWRFFFVAFVGI,0.421 ± 0.025,0.446 ± 0.0079,0.509 ± 0.024,0.377 ± 0.034,0.55 ± 0.0084,0.359 ± 0.0076,0.357 ± 0.021,0.515 ± 0.018
MALAVRVVFCGA,0.371 ± 0.058,0.3299 ± 0.0012,0.338 ± 0.0067,0.275 ± 0.032,0.436 ± 0.015,0.227 ± 0.0095,0.27 ± 0.025,0.418 ± 0.01
MALAVRVVICGA,0.169 ± 0.0098,0.0365 ± 0.01,0.11 ± 0.097,0.134 ± 0.015,0.172 ± 0.011,0.103 ± 0.012,0.107 ± 0.019,0.134 ± 0.026
MLCVFVFIWYFV,0.235 ± 0.011,0.235 ± 0.03,0.279 ± 0.013,0.254 ± 0.011,0.359 ± 0.0048,0.218 ± 0.013,0.208 ± 0.024,0.307 ± 0.02
MLFALLTIVFLG,0.295 ± 0.016,0.241 ± 0.031,0.3263 ± 0.0015,0.242 ± 0.024,0.388 ± 0.0085,0.166 ± 0.0093,0.182 ± 0.015,0.30056 ± 0.00017
MLTYVVRSLVGY,0.422 ± 0.029,0.484 ± 0.0066,0.4954 ± 0.0015,0.37 ± 0.045,0.527 ± 0.011,0.331 ± 0.017,0.375 ± 0.023,0.496 ± 0.018
MWFVGLCLHFFM,0.3985 ± 0.0019,0.472 ± 0.029,0.5504 ± 0.0014,0.409 ± 0.024,0.546 ± 0.035,0.344 ± 0.0067,0.364 ± 0.017,0.499 ± 0.019
NAGSHHAAVKLG,0.399 ± 0.06,0.664 ± 0.064,0.74 ± 0.027,0.6411 ± 0.0016,0.7163 ± 0.001,0.222 ± 0.018,0.266 ± 0.023,0.502 ± 0.012
NCMGLLMPLLIT,0.353 ± 0.0039,0.437 ± 0.024,0.391 ± 0.0086,0.378 ± 0.039,0.504 ± 0.019,0.2688 ± 0.00028,0.254 ± 0.037,0.382 ± 0.012
NFFLLFFFFLSF,0.415 ± 0.049,0.455 ± 0.037,0.4876 ± 0.0038,0.398 ± 0.045,0.535 ± 0.0082,0.4656 ± 0.0034,0.41 ± 0.043,0.512 ± 0.022
PAMPTEPKSSSG,0.7016 ± 0.0016,0.667 ± 0.019,0.7403 ± 0.0028,0.629 ± 0.015,0.716 ± 0.034,0.644 ± 0.015,0.667 ± 0.033,0.717 ± 0.0095
PFFSSLKYRRDH,0.237 ± 0.051,0.598 ± 0.07,0.751 ± 0.014,0.6675 ± 0.0032,0.77 ± 0.02,0.117 ± 0.024,0.142 ± 0.023,0.197 ± 0.014
PFFVFSFLFLLH,0.288 ± 0.054,0.114 ± 0.01,0.183 ± 0.023,0.192 ± 0.024,0.313 ± 0.035,0.194 ± 0.012,0.15 ± 0.029,0.275 ± 0.015
